This note sets out measurements from patent US20250034271A1 (EUCURE BEIJING BIOPHARMA, published 2025).

The labels stand for the following.
B1: 7F10-H3K1-IgG4 (antibody, V domains shown)
VH: EVKLVESGGGLVQPGGSLRLSCATSGFTFSDYYMYWVRQAPEKRLEWVAYISYGGDSTFYPDTVRGRFTISRDNAKNALYLQMSRLKAEDTAVYYCARPAPSAHSYYLDYWGQGTTLTVSS
VL: DIQMTQSPSSLSASVGDRVTITCRASQDISNYLNWYQQKPGGAVKLLIYYTSRLHSGLPSRFSGSGSGTDFTFTISSLQPEDIATYYCQQGKTLPFTFASGTKLEIK
notes: Humanized
B2: 7F10-H3K4-IgG4 (antibody, V domains shown)
VH: EVKLVESGGGLVQPGGSLRLSCATSGFTFSDYYMYWVRQAPEKRLEWVAYISYGGDSTFYPDTVRGRFTISRDNAKNALYLQMSRLKAEDTAVYYCARPAPSAHSYYLDYWGQGTTLTVSS
VL: DIQMTQSTSSLSASVGDRVTITCRASQDISNYLNWYQQKPDGTVKLLIYYTSRLHSGLPSRFSGSGSGTDYTLTISSLQQEDIATYYCQQGKTLPFTFASGTKLEIK
notes: Humanized
B3: 7F10-H3K2-IgG4 (antibody, V domains shown)
VH: EVKLVESGGGLVQPGGSLRLSCATSGFTFSDYYMYWVRQAPEKRLEWVAYISYGGDSTFYPDTVRGRFTISRDNAKNALYLQMSRLKAEDTAVYYCARPAPSAHSYYLDYWGQGTTLTVSS
VL: DIQMTQSPSSLSASVGDRVTITCRASQDISNYLNWYQQKPGGAVKLLIYYTSRLHSGLPSRFSGSGSGTDYTFTISSLQPEDIATYYCQQGKTLPFTFASGTKLEIK
notes: Humanized
B4: 7F10-H3K3-IgG4 (antibody, V domains shown)
VH: EVKLVESGGGLVQPGGSLRLSCATSGFTFSDYYMYWVRQAPEKRLEWVAYISYGGDSTFYPDTVRGRFTISRDNAKNALYLQMSRLKAEDTAVYYCARPAPSAHSYYLDYWGQGTTLTVSS
VL: DIQMTQSTSSLSASVGDRVTITCRASQDISNYLNWYQQKPGGAVKLLIYYTSRLHSGLPSRFSGSGSGTDYTLTISSLQQEDIATYYCQQGKTLPFTFASGTKLEIK
notes: Humanized
B5: 4H6-mHvKv-IgG1 (antibody, V domains shown)
VH: EVKLQESGPSLVKPSQTLSLTCSVTGDSVSSGYWNWIRKFPGNKLEYMGFISYSGSTYYTPSLKSRISITRDTSKNQFYLQLNSVTTEDTATYFCARFRRYDDGVDYWGQGTTLTVSS
VL: DIQMTQSPSSLSASLGERVSLTCRASHEISGYLSWIQQKPDGTIKRLINAASTLASGVPKRFSGSRSGSEYSLTINSLESEDFADYYCLQYSSYPWTFGGGTKLEIK
notes: Chimeric
B6: 6A7-mHvKv-IgG4 (antibody, V domains shown)
VH: QVQLQQPGAELVKPGASVKLSCKASGYTFISYYIYWVKQRPGQGLEWIGGINPRNGGTNFNEKFKSKATLTVDKSSSTAYMQLSSLTSEDSAVYYCTRHGNGVYWGQGTTLTVSS
VL: DVVMTQTPLSLPVSLGDQASISCRSSQSLLHSNGNTYLHWYLQKPGQSPNHLIYQVSNRFSGVPDRFSGSGSGTDFTLKISRVEAEDLGVYFCSQTTHVPWTFGGGTKLEIK
notes: Chimeric; also called chimeric anti-hCD40 antibody 6A7-mHvKv-IgG4
B7: 6A7-H2K2-IgG4 (antibody, V domains shown)
VH: QVQLVQSGAEVKKPGASVKVSCKASGYTFISYYIYWVRQAPGQGLEWIGGINPRNGGTNFNEKFKSRATLTVDTSISTAYMELSRLRSEDTAVYYCARHGNGVYWGQGTTVTVSS
VL: DVVMTQSPLSLPVTLGQPASISCRSSQSLLHSNGNTYLHWYQQRPGQSPNHLIYQVSNRFSGVPDRFSGSGSGTDFTLKISRVEAEDVGVYFCSQTTHVPWTFGGGTKVEIK
notes: Humanized
B8: 6A7-H4K3-IgG4 (antibody, V domains shown)
VH: QVQLVQSGAEVKKPGASVKLSCKASGYTFISYYIYWVKQAPGQGLEWIGGINPRNGGTNFNEKFKSRATLTVDTSISTAYMELSRLRSEDTAVYYCTRHGNGVYWGQGTTLTVSS
VL: DVVMTQSPLSLPVTLGDPASISCRSSQSLLHSNGNTYLHWYQQRPGQSPNHLIYQVSNRFSGVPDRFSGSGSGTDFTLKISRVEAEDVGVYFCSQTTHVPWTFGGGTKLEIK
notes: Humanized
B9: 6A7-H1K1-IgG4 (antibody, V domains shown)
VH: QVQLVQSGAEVKKPGASVKVSCKASGYTFISYYIYWVRQAPGQGLEWMGGINPRNGGTNFNEKFKSRVTLTVDTSISTAYMELSRLRSEDTAVYYCARHGNGVYWGQGTTVTVSS
VL: DVVMTQSPLSLPVTLGQPASISCRSSQSLLHSNGNTYLHWFQQRPGQSPRHLIYQVSNRFSGVPDRFSGSGSGTDFTLKISRVEAEDVGVYYCSQTTHVPWTFGGGTKVEIK
notes: Humanized
B10: 6A7-H1K2-IgG4 (antibody, V domains shown)
VH: QVQLVQSGAEVKKPGASVKVSCKASGYTFISYYIYWVRQAPGQGLEWMGGINPRNGGTNFNEKFKSRVTLTVDTSISTAYMELSRLRSEDTAVYYCARHGNGVYWGQGTTVTVSS
VL: DVVMTQSPLSLPVTLGQPASISCRSSQSLLHSNGNTYLHWYQQRPGQSPNHLIYQVSNRFSGVPDRFSGSGSGTDFTLKISRVEAEDVGVYFCSQTTHVPWTFGGGTKVEIK
notes: Humanized
B11: 6A7-H2K1-IgG4 (antibody, V domains shown)
VH: QVQLVQSGAEVKKPGASVKVSCKASGYTFISYYIYWVRQAPGQGLEWIGGINPRNGGTNFNEKFKSRATLTVDTSISTAYMELSRLRSEDTAVYYCARHGNGVYWGQGTTVTVSS
VL: DVVMTQSPLSLPVTLGQPASISCRSSQSLLHSNGNTYLHWFQQRPGQSPRHLIYQVSNRFSGVPDRFSGSGSGTDFTLKISRVEAEDVGVYYCSQTTHVPWTFGGGTKVEIK
notes: Humanized
B12: 6A7-H1K3-IgG4 (antibody, V domains shown)
VH: QVQLVQSGAEVKKPGASVKVSCKASGYTFISYYIYWVRQAPGQGLEWMGGINPRNGGTNFNEKFKSRVTLTVDTSISTAYMELSRLRSEDTAVYYCARHGNGVYWGQGTTVTVSS
VL: DVVMTQSPLSLPVTLGDPASISCRSSQSLLHSNGNTYLHWYQQRPGQSPNHLIYQVSNRFSGVPDRFSGSGSGTDFTLKISRVEAEDVGVYFCSQTTHVPWTFGGGTKLEIK
notes: Humanized
B13: 6A7-H4K1-IgG4 (antibody, V domains shown)
VH: QVQLVQSGAEVKKPGASVKLSCKASGYTFISYYIYWVKQAPGQGLEWIGGINPRNGGTNFNEKFKSRATLTVDTSISTAYMELSRLRSEDTAVYYCTRHGNGVYWGQGTTLTVSS
VL: DVVMTQSPLSLPVTLGQPASISCRSSQSLLHSNGNTYLHWFQQRPGQSPRHLIYQVSNRFSGVPDRFSGSGSGTDFTLKISRVEAEDVGVYYCSQTTHVPWTFGGGTKVEIK
notes: Humanized
B14: 6A7-H3K2-IgG4 (antibody, V domains shown)
VH: QVQLVQSGAEVKKPGASVKVSCKASGYTFISYYIYWVRQAPGQGLEWIGGINPRNGGTNFNEKFKSRATLTVDTSISTAYMELSRLRSEDTAVYYCTRHGNGVYWGQGTTVTVSS
VL: DVVMTQSPLSLPVTLGQPASISCRSSQSLLHSNGNTYLHWYQQRPGQSPNHLIYQVSNRFSGVPDRFSGSGSGTDFTLKISRVEAEDVGVYFCSQTTHVPWTFGGGTKVEIK
notes: Humanized
B15: 6A7-H2K3-IgG4 (antibody, V domains shown)
VH: QVQLVQSGAEVKKPGASVKVSCKASGYTFISYYIYWVRQAPGQGLEWIGGINPRNGGTNFNEKFKSRATLTVDTSISTAYMELSRLRSEDTAVYYCARHGNGVYWGQGTTVTVSS
VL: DVVMTQSPLSLPVTLGDPASISCRSSQSLLHSNGNTYLHWYQQRPGQSPNHLIYQVSNRFSGVPDRFSGSGSGTDFTLKISRVEAEDVGVYFCSQTTHVPWTFGGGTKLEIK
notes: Humanized
B16: 6A7-H3K1-IgG4 (antibody, V domains shown)
VH: QVQLVQSGAEVKKPGASVKVSCKASGYTFISYYIYWVRQAPGQGLEWIGGINPRNGGTNFNEKFKSRATLTVDTSISTAYMELSRLRSEDTAVYYCTRHGNGVYWGQGTTVTVSS
VL: DVVMTQSPLSLPVTLGQPASISCRSSQSLLHSNGNTYLHWFQQRPGQSPRHLIYQVSNRFSGVPDRFSGSGSGTDFTLKISRVEAEDVGVYYCSQTTHVPWTFGGGTKVEIK
notes: Humanized

The assay deals with T1, Histidine-tagged human CD40 protein (hCD40-His) (human, UniProt P25942 21-193).
T1 construct: not shown: histidine tag
T1 sequence (P25942 21-193 limits assumed): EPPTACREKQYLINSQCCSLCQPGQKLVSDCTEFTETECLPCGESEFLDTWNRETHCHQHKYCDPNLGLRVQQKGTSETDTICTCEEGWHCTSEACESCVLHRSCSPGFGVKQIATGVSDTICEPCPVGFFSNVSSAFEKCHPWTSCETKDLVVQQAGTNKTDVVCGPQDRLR
Description: SPR, Biacore T200; antibody on Protein A chip, hCD40-His injected; 1:1 fit. On the procedure:
The binding affinity of the anti-hCD40 antibodies were measured using surface plasmon resonance (SPR) using Biacore (Biacore, INC, Piscataway N.J.) T200 biosensor equipped with pre-immobilized Protein A sensor chips.
Anti-hCD40 antibodies were collected by transfecting CHO-S cells and then purified. The antibodies (1 μg/mL) were injected into Biacore T200 biosensor at 10 μL/min for about 24-33 seconds to achieve to a desired protein density (about 44-57 response units (RU)). […] Dissociation was monitored for 300 seconds. The chip was regenerated after the last injection of each titration with Glycine (pH 2.0, 30 μL/min for 12 seconds).
B1: binding was characterised by a dissociation constant (Kd) of 430 nM, the off-rate constant (koff) was 0.0568 s⁻¹ and the on-rate constant (kon) amounted to 132000 M⁻¹ s⁻¹.

Take B2: the Kd worked out at 184 nM, the koff was found to be 0.0274 s⁻¹ and the kon amounted to 149000 M⁻¹ s⁻¹.

As to B3, binding was put at a Kd of 380 nM, the koff was found to be 0.0482 s⁻¹ and the kon was 127000 M⁻¹ s⁻¹.

B4 showed a Kd of 238 nM, an off-rate constant (koff) of 0.0314 s⁻¹ and a kon of 132000 M⁻¹ s⁻¹.

On to B5, for which the Kd was determined as 36.5 nM, the dissociation rate constant (koff) amounted to 0.0205 s⁻¹ and the kon turned out to be 561000 M⁻¹ s⁻¹.

For B6, the dissociation constant (Kd) turned out to be 2.6 nM, the koff came out at 0.000259 s⁻¹ and the kon turned out to be 99400 M⁻¹ s⁻¹.

Regarding B7, the Kd was determined as 189 nM, the koff turned out to be 0.00496 s⁻¹ and the kon is 26300 M⁻¹ s⁻¹.

For the molecule B8, the Kd was found to be 3.49 nM, the off-rate (koff) worked out at 0.000373 s⁻¹ and the kon was determined as 107000 M⁻¹ s⁻¹.

Turning to B9, the Kd was found to be 280 nM, the off-rate constant (koff) amounted to 0.00571 s⁻¹ and the on-rate constant (kon) stood at 20400 M⁻¹ s⁻¹.

B10 gave a Kd of 187 nM, a koff of 0.00386 s⁻¹ and an on-rate (kon) of 20600 M⁻¹ s⁻¹.

As to B11, the Kd was 298 nM, the koff was determined as 0.00708 s⁻¹ and the kon is 23700 M⁻¹ s⁻¹.

For the molecule B12, the Kd was found to be 136 nM, the koff was 0.0039 s⁻¹ and the kon worked out at 28700 M⁻¹ s⁻¹.

Regarding B13, the Kd amounted to 23.9 nM, the off-rate constant (koff) worked out at 0.000572 s⁻¹ and the kon worked out at 23900 M⁻¹ s⁻¹.

In turn, B14 came in with a dissociation constant (Kd) of 5.74 nM, a koff of 0.000371 s⁻¹ and a kon of 64600 M⁻¹ s⁻¹.

For the molecule B15, the Kd turned out to be 111 nM, the dissociation rate constant (koff) came to 0.00505 s⁻¹ and the kon is 45300 M⁻¹ s⁻¹.

With B16, the Kd worked out at 20.8 nM, the koff came out at 0.000574 s⁻¹ and the kon was 27600 M⁻¹ s⁻¹.

What is called Kd is the equilibrium constant for the complex coming apart. Read a low Kd as higher affinity. One may read the koff as a measure of how fast the partners let go of each other. A higher koff goes with a short-lived complex. Usually kon stands for the second-order rate constant of association. Higher therefore signals faster complex formation.
